From paper PMC5087089, “Reconstituted B cell receptor signaling reveals carbohydrate-dependent mode of activation” (Scientific Reports, 2016) come the findings set out here.

The assay addresses T1, wildtype (WT) HA trimer from A/New Caledonia/20/1999 (H1 1999 NC), soluble trimeric format (influenza A virus A/New …, UniProt Q6WG00).
T1 construct: also called wildtype HA
Briefly: ELISA. As to conditions: both partners purified. Background: In an ELISA, binding on a coated surface is turned into a signal by an enzyme label.

B1: CH65, HA receptor binding site specific monoclonal antibody (antibody, V domains shown)
VH: EVQLVQSGAEVKKPGASVKVSCKASGYTFTDYHINWVRQAPGQGLEWMGWIHPNSGDTNYAQKFQGWVTMTRDTAISTAYMEVNGLKSDDTAVYYCARGGLEPRSVDYYYYGMDVWGQGTTVTVSS
VL: SVLTQPPSVSVAPGQTARITCGGNDIGRKSVHWNQQKPGQAPVLVVCYDSDRPSGIPERFSGSNSGNTATLTISRVEAGDEADYYCQVWDSSSDHVIFGGGTKLTVL
Consider B1, for which the binding result was “binds”.
